# Experimental data reported in patent publication US20240150451A1.
# Molecular target: tau of P301S transgenic mice (aggregated tau in brainstem; tau seeds from spinal cord) (UniProt P10636)
# Assay: cell-based or functional assay
# tau of P301S transgenic mice (aggregated tau in brainstem; tau seeds from spinal cord), sequence (P10636 other isoform, or with tags, fused parts or gaps P301S P301S): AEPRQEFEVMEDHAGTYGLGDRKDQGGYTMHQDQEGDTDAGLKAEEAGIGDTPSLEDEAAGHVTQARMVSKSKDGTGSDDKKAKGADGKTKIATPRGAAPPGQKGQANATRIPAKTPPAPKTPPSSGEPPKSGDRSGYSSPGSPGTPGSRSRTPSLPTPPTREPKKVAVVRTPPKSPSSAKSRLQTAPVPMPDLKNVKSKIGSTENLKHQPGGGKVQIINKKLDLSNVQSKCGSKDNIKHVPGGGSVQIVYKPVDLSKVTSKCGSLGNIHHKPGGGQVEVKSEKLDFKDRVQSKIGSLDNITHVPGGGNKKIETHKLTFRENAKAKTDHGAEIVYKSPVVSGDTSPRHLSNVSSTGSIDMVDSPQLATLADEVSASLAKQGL
"% inhibition of tau seeding in FRET biosensor cells after immunodepletion, antibody 3 nM","% inhibition of tau seeding in FRET biosensor cells after immunodepletion, antibody 300 nM",Binder
46.5%,99.7%,"PT66 monoclonal antibody (recombinant, mouse IgG2a/kappa) (antibody, V domains shown) VH: QVQLQQPGAELVKPGASVKMSCKASGYTFTSYWITWVKQRPGQGLEWIGDIHPGRGSTKSNEKFKSKATLTVDTSSSTAYMQFSSLTSEDSAVYYCARRWGFDYWGQGTTLTVSS VL: DIVITQDELSNPVTSGESVSISCRSSKSLLYKDGKTYLNWFLQRPGQSPQLLIYLMSTRASGVSDRFSGSGSGTDFTLEISRVKAEDVGVYYCQQLVDYPLTFGAGTKLELKR"
45.8%,99.8%,"PT69 monoclonal antibody (recombinant, mouse IgG2a/kappa) (antibody, V domains shown) VH: QVQLQQPGAELVKPGASVKMSCKASGYTFTNYWITWVKQRPGQGLEWIGDIYPGSGRTKSNEKFKNKATLTADTSSSTAYMQLSSLTSEDSAVYYCTRRWGLDYWGQGTTLTVSS VL: DIVITQDELSNPVTSGESVSISCRSNKSLLYKDGKTYLNWFLQRPGQSPQLLIYLMSTRASGVSDRFSGSGSGTDFTLEISRVKAEDVGVYYCQQLVDYPLTFGAGTKLELKR"
22%,99.7%,"hTau60 monoclonal antibody (recombinant, mouse IgG2a/kappa) (antibody, V domains shown) VH: EVQLQQSGPELVKPGTSVKISCKVFGYTFTDYYMNWVKQSHGKSLEWIGDINPDNGETTYNQKFKGKATLTVDKSSSTAYMELRSLTSEDSAVYYCAKGATFVYWGQGTLVTVSA VL: DVVMTQTPLSLPVSLGDQASISCISSQSLVHSTGTTFLHWFLQKPGQSPKLLIYKVSNRFSGVPDRFSGSGSGTDFTLKISRVEAEDLGFYFCSQSTYFPLTFGSGTKLEIKR"
